Results on 44 variants are retold here after the Human Domainome abundance scans (Beltran et al. 2025).

± gives the uncertainty stated by the source.

First the molecules themselves.
B1: CD2-associated protein, residues 109 to 169; numbered along this chain, Q9Y5K6 (parent)
chain: KKRQCKVLFEYIPQNEDELELKVGDIIDINEEVEEGWWSGTLNNKLGLFPSNFVKELEVTD

The variants in the series derive from B1. Put plainly: abundance fitness (aPCA) (normalised: wild type 0, dead -1); higher = more abundant; growth selection in yeast, the domain comes from the species named. The settings on record: Homo sapiens.
Consider KKRQCKVLFEYIPQNEDELELKVGDRIDINEEVEEGWWSGTLNNKLGLFPSNFVKELEVTD [I26R], for which the abundance fitness is -0.813 ± 0.14. Then KKRQCKVLFEYIPQNEDELELKVGDKIDINEEVEEGWWSGTLNNKLGLFPSNFVKELEVTD [I26K], with -0.624 ± 0.17; and KKRQCKVLFEYIPQNEDELELKVGDQIDINEEVEEGWWSGTLNNKLGLFPSNFVKELEVTD [I26Q], with -0.744 ± 0.25; and KKRQCKVLFEYIPQNEDELELKVGDSIDINEEVEEGWWSGTLNNKLGLFPSNFVKELEVTD [I26S], with -0.623 ± 0.12. The same measure for KKRQCKVLFEYIPQNEDELELKVGDTIDINEEVEEGWWSGTLNNKLGLFPSNFVKELEVTD [I26T]: -0.495 ± 0.13.

On to KKRQCKVLFEYIPQNEDELELKVGDPIDINEEVEEGWWSGTLNNKLGLFPSNFVKELEVTD [I26P], for which the abundance fitness is -0.818 ± 0.46. Regarding KKRQCKVLFEYIPQNEDELELKVGDAIDINEEVEEGWWSGTLNNKLGLFPSNFVKELEVTD [I26A], the abundance fitness is -0.912 ± 0.27. Then KKRQCKVLFEYIPQNEDELELKVGDWIDINEEVEEGWWSGTLNNKLGLFPSNFVKELEVTD [I26W], with -0.442 ± 0.28. In the case of KKRQCKVLFEYIPQNEDELELKVGDVIDINEEVEEGWWSGTLNNKLGLFPSNFVKELEVTD [I26V], the abundance fitness is -0.262 ± 0.11. Then KKRQCKVLFEYIPQNEDELELKVGDGIDINEEVEEGWWSGTLNNKLGLFPSNFVKELEVTD [I26G], with -1.03 ± 0.25; and KKRQCKVLFEYIPQNEDELELKVGDLIDINEEVEEGWWSGTLNNKLGLFPSNFVKELEVTD [I26L], with -0.245 ± 0.096; and KKRQCKVLFEYIPQNEDELELKVGDHIDINEEVEEGWWSGTLNNKLGLFPSNFVKELEVTD [I26H], with -0.391 ± 0.44.

Regarding KKRQCKVLFEYIPQNEDELELKVGDMIDINEEVEEGWWSGTLNNKLGLFPSNFVKELEVTD [I26M], the abundance fitness was -0.369 ± 0.12. The same measure for KKRQCKVLFEYIPQNEDELELKVGDCIDINEEVEEGWWSGTLNNKLGLFPSNFVKELEVTD [I26C]: -0.722 ± 0.29. The same measure for KKRQCKVLFEYIPQNEDELELKVGDEIDINEEVEEGWWSGTLNNKLGLFPSNFVKELEVTD [I26E]: -0.484 ± 0.2; for KKRQCKVLFEYIPQNEDELELKVGDIKDINEEVEEGWWSGTLNNKLGLFPSNFVKELEVTD [I27K]: -1.03 ± 0.42. Then KKRQCKVLFEYIPQNEDELELKVGDINDINEEVEEGWWSGTLNNKLGLFPSNFVKELEVTD [I27N], with -0.542 ± 0.45; and KKRQCKVLFEYIPQNEDELELKVGDIEDINEEVEEGWWSGTLNNKLGLFPSNFVKELEVTD [I27E], with -0.951 ± 0.43; and KKRQCKVLFEYIPQNEDELELKVGDILDINEEVEEGWWSGTLNNKLGLFPSNFVKELEVTD [I27L], with -0.436 ± 0.11. For KKRQCKVLFEYIPQNEDELELKVGDIQDINEEVEEGWWSGTLNNKLGLFPSNFVKELEVTD [I27Q], the abundance fitness was -0.541 ± 0.19. The same measure for KKRQCKVLFEYIPQNEDELELKVGDISDINEEVEEGWWSGTLNNKLGLFPSNFVKELEVTD [I27S]: -0.641 ± 0.2; for KKRQCKVLFEYIPQNEDELELKVGDIMDINEEVEEGWWSGTLNNKLGLFPSNFVKELEVTD [I27M]: -0.716 ± 0.24; for KKRQCKVLFEYIPQNEDELELKVGDIHDINEEVEEGWWSGTLNNKLGLFPSNFVKELEVTD [I27H]: -0.614 ± 0.42. As to KKRQCKVLFEYIPQNEDELELKVGDIGDINEEVEEGWWSGTLNNKLGLFPSNFVKELEVTD [I27G], the abundance fitness is -0.939 ± 0.44. The same measure for KKRQCKVLFEYIPQNEDELELKVGDITDINEEVEEGWWSGTLNNKLGLFPSNFVKELEVTD [I27T]: -0.902 ± 0.27. The same measure for KKRQCKVLFEYIPQNEDELELKVGDICDINEEVEEGWWSGTLNNKLGLFPSNFVKELEVTD [I27C]: -0.692 ± 0.32; for KKRQCKVLFEYIPQNEDELELKVGDIVDINEEVEEGWWSGTLNNKLGLFPSNFVKELEVTD [I27V]: 0.03 ± 0.32; for KKRQCKVLFEYIPQNEDELELKVGDIWDINEEVEEGWWSGTLNNKLGLFPSNFVKELEVTD [I27W]: -0.913 ± 0.24. Then KKRQCKVLFEYIPQNEDELELKVGDIADINEEVEEGWWSGTLNNKLGLFPSNFVKELEVTD [I27A], with -0.608 ± 0.18; and KKRQCKVLFEYIPQNEDELELKVGDIPDINEEVEEGWWSGTLNNKLGLFPSNFVKELEVTD [I27P], with -0.61 ± 0.33. On to KKRQCKVLFEYIPQNEDELELKVGDIYDINEEVEEGWWSGTLNNKLGLFPSNFVKELEVTD [I27Y], for which the abundance fitness is -0.684 ± 0.49. As for KKRQCKVLFEYIPQNEDELELKVGDIIYINEEVEEGWWSGTLNNKLGLFPSNFVKELEVTD [D28Y], the abundance fitness was -0.271 ± 0.16.

As to KKRQCKVLFEYIPQNEDELELKVGDIICINEEVEEGWWSGTLNNKLGLFPSNFVKELEVTD [D28C], the abundance fitness is -0.264 ± 0.25.

Consider KKRQCKVLFEYIPQNEDELELKVGDIITINEEVEEGWWSGTLNNKLGLFPSNFVKELEVTD [D28T], for which the abundance fitness is -0.209 ± 0.14. On to KKRQCKVLFEYIPQNEDELELKVGDIIEINEEVEEGWWSGTLNNKLGLFPSNFVKELEVTD [D28E], for which the abundance fitness was found to be 0.131 ± 0.11.

Consider KKRQCKVLFEYIPQNEDELELKVGDIILINEEVEEGWWSGTLNNKLGLFPSNFVKELEVTD [D28L], for which the abundance fitness was -0.4 ± 0.12. Then KKRQCKVLFEYIPQNEDELELKVGDIIVINEEVEEGWWSGTLNNKLGLFPSNFVKELEVTD [D28V], with -0.314 ± 0.082. Then KKRQCKVLFEYIPQNEDELELKVGDIIFINEEVEEGWWSGTLNNKLGLFPSNFVKELEVTD [D28F], with -0.335 ± 0.19; and KKRQCKVLFEYIPQNEDELELKVGDIIRINEEVEEGWWSGTLNNKLGLFPSNFVKELEVTD [D28R], with -0.515 ± 0.12; and KKRQCKVLFEYIPQNEDELELKVGDIIHINEEVEEGWWSGTLNNKLGLFPSNFVKELEVTD [D28H], with -0.136 ± 0.25. The same measure for KKRQCKVLFEYIPQNEDELELKVGDIIWINEEVEEGWWSGTLNNKLGLFPSNFVKELEVTD [D28W]: -0.268 ± 0.15; for KKRQCKVLFEYIPQNEDELELKVGDIIAINEEVEEGWWSGTLNNKLGLFPSNFVKELEVTD [D28A]: -0.536 ± 0.19. For the variant KKRQCKVLFEYIPQNEDELELKVGDIISINEEVEEGWWSGTLNNKLGLFPSNFVKELEVTD [D28S], the abundance fitness was -0.368 ± 0.1. Then KKRQCKVLFEYIPQNEDELELKVGDIIGINEEVEEGWWSGTLNNKLGLFPSNFVKELEVTD [D28G], with -0.581 ± 0.13.
